Measurements published in patent publication US20220204643A1 (published 2022).
Like-named read-outs stand apart in the source and are kept apart here. Blank lines part the entries; values can stand above or below the binder they belong to.

Assays:
DEAD-box helicase 53 [1] = molecular target: T1, DEAD-box helicase 53 (human, UniProt Q86TM3 1-631); assay: protein array
T1 construct: on protein array; also called DDX53
T1 sequence (Q86TM3 other isoform, or with tags, fused parts or gaps limits assumed): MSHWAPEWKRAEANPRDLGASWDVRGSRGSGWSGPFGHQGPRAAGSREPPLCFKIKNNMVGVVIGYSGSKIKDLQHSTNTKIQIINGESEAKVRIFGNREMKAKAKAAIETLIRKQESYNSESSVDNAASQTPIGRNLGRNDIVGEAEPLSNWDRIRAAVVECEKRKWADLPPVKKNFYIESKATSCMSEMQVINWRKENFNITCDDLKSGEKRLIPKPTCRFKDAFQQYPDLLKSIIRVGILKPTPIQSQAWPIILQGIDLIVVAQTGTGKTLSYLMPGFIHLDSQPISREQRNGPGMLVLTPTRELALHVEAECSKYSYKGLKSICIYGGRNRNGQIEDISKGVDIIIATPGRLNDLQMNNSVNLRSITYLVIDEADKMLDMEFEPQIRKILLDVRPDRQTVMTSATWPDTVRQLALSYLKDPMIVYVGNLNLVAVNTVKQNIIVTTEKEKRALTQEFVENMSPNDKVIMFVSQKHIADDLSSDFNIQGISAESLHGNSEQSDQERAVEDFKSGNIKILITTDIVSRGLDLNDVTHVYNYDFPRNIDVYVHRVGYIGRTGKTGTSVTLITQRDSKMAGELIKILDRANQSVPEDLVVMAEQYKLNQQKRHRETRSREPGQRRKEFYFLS

DEAD-box helicase 53 [2] = molecular target: T2, DEAD-box helicase 53 (human, UniProt Q86TM3 1-631)
T2 construct: also called DDX53
T2 sequence (Q86TM3 other isoform, or with tags, fused parts or gaps limits assumed): as above

[3] = molecular target: T3, kelch like ECH associated protein 1, transcript variant 1 (human, UniProt Q14145 1-624)
T3 construct: HuProt array protein, full-length recombinant from yeast; also called KEAP1
T3 sequence (Q14145 whole entry, change not shown): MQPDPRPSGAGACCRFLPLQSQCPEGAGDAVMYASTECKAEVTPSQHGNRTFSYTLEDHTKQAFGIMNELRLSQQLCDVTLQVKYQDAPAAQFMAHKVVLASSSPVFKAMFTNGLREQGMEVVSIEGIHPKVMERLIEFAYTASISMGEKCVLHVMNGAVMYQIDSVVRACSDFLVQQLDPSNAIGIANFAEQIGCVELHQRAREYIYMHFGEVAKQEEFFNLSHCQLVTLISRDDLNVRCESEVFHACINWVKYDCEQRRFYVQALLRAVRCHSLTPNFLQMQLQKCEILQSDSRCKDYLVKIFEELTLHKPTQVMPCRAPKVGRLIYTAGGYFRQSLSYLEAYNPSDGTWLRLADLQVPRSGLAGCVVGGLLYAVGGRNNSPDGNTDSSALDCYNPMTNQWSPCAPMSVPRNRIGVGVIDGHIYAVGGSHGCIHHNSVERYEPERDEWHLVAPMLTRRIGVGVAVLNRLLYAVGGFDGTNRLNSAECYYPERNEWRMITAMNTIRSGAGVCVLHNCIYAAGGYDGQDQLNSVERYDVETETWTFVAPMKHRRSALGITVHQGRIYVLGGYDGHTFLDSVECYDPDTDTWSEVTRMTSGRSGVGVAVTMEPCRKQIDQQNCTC

[4] = molecular target: T4, kelch like ECH associated protein 1, transcript variant 1 (human, UniProt Q14145 1-624); assay: protein array
T4 construct: on protein array; also called KEAP1
T4 sequence (Q14145 whole entry, change not shown): as above

[5] = molecular target: T5, PNMA family member 5, transcript variant 2 (human, UniProt Q96PV4 1-448); assay: protein array
T5 construct: on protein array; also called PNMA5
T5 sequence (Q96PV4 other isoform, or with tags, fused parts or gaps mutant limits assumed): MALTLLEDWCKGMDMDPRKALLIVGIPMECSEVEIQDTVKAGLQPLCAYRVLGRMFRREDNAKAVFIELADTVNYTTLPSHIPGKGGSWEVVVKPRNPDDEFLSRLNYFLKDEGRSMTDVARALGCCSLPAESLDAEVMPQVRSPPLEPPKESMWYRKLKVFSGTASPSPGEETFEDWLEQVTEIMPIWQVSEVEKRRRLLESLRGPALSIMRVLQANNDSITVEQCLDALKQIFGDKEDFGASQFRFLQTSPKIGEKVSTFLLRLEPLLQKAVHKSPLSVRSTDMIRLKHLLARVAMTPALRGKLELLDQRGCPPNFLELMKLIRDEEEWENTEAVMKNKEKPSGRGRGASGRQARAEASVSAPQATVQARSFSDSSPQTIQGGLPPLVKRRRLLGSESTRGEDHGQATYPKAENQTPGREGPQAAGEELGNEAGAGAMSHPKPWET

[6] = molecular target: T6, PNMA family member 5, transcript variant 2 (human, UniProt Q96PV4 1-448)
T6 construct: HuProt array protein, full-length recombinant from yeast; also called PNMA5
T6 sequence (Q96PV4 other isoform, or with tags, fused parts or gaps mutant limits assumed): as above

[7] = molecular target: T7, endosome associated trafficking regulator 1, transcript variant 2 (human, UniProt Q96C92 59-435); assay: protein array
T7 construct: on protein array; also called SDCCAG3
T7 chain: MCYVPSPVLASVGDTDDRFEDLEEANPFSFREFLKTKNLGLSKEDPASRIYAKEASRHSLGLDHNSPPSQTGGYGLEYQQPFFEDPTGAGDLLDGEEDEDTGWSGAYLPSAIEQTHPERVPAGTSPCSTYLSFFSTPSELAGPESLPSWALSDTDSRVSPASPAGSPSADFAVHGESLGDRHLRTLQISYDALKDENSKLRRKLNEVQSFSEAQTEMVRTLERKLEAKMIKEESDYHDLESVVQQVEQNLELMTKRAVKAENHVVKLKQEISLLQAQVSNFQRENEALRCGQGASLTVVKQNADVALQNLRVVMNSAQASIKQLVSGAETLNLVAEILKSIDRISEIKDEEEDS

[8] = molecular target: T8, endosome associated trafficking regulator 1, transcript variant 2 (human, UniProt Q96C92 59-435)
T8 construct: HuProt array protein, full-length recombinant from yeast; also called SDCCAG3
T8 chain: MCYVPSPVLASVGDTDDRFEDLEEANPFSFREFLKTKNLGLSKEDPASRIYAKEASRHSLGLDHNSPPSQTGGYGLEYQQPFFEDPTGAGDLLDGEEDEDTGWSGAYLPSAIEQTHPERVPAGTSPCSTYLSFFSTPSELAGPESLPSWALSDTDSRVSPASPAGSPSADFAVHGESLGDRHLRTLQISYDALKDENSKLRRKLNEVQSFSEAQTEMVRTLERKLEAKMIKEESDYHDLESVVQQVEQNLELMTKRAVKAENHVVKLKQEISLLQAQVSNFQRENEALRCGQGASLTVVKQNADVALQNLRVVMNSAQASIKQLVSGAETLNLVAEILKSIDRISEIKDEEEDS

[9] = molecular target: T9, Jupiter microtubule associated homolog 2 (human, UniProt Q9H910 1-190); assay: protein array
T9 construct: on protein array; also called HN1L
T9 sequence: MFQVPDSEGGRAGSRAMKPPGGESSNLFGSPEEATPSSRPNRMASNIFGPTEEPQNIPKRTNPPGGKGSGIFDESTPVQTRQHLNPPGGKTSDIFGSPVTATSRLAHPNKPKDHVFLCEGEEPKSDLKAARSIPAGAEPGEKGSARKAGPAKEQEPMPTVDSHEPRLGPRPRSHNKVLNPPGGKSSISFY

B1: TOVA1001 (antibody, V domains shown)
VH: HVQLVQSGSELKKPGASVKLSCKASGYTFTNYAMNWVRQAPGQGLEWMGWINTNTGNPTYAQGFTGRFVFSLDTSVSTAYLQISSLKAEDTALYYCARDRPGDYWGQGTLVTVSS
VL: not shown
notes: VH/VL tied via antigen in summary, not by name in this stretch
binding result (DEAD-box helicase 53 [1]): binds

B5: TCOL1007 (antibody, V domains shown)
VH: PVQLVESGGGVVQPGRSLRLSCAASGFTFSNYGMHWVRQAPGKGLEWVAVISDDGNDKDNADSVKGRFTISRDNSKNTLYLRMNSLRREDTAVYYCARDGFDYWGQGTLVTVSS
VL: DIVMTQTPLSMPVTPGEPASISCRSSQSLLDSDDGKTYLDWYLQKPGQSPQLLIYTVSYRASGVPDRFSGSGSGTDFTLKISRVEAEDVGVYYCMQRIEFPFTFGPGTKVDIKR
notes: detected with anti-human IgG Fc
binding result [3]: binds

B6: TBRE1011 (antibody, V domains shown)
VH: PVLLQESGPGLVKPSETLSLTCTVSGDSMSFYYWTWIRQPPGKGLEWIGYIYYSGNRNYNPSLNSRVTISVDTSKNEVSLKLTSVTAADTAAYYCARGRGEMDVWGQGTTVTVSS
VL: QSVLTQPPSASGTPGQGVTISCSGTSANIGKNYVSWYQHLPGTAPRLLIYRIDQRPSGVPDRFSGSKSGTSASLAISGLRPEDEADYYCAAWDDSLSGPVFGGGTKLTVLG
notes: VH/VL only
binding result [5]: binds

B7: TBRE1011 (antibody, V domains shown)
VH: PVLLQESGPGLVKPSETLSLTCTVSGDSMSFYYWTWIRQPPGKGLEWIGYIYYSGNRNYNPSLNSRVTISVDTSKNEVSLKLTSVTAADTAAYYCARGRGEMDVWGQGTTVTVSS
VL: QSVLTQPPSASGTPGQGVTISCSGTSANIGKNYVSWYQHLPGTAPRLLIYRIDQRPSGVPDRFSGSKSGTSASLAISGLRPEDEADYYCAAWDDSLSGPVFGGGTKLTVLG
notes: as for B5
binding result [6]: binds

B9: TMEL1025 (antibody, V domains shown)
VH: EVQLMESGGGLVQPGGSLRLSCAASGLTFSIYSMNWVRQAPGKGLEWVSYISRGSSVIYHADSVKGRFTISRDDGKNLLYLQMNSLRDDDTAMYYCSSGGSTSMVGRYWGQGSLVTVSS
VL: DVVMTQSPLYLPVTLGQPASISCRASQSLVYSDGNTYLNWVHQRPGQSPRRLIYMVSQRGSGVPDRFSGSGSDTDFTLKISRVEAEDVGVYYCMQGTHWSAFGQGTKLEIKR
notes: as for B5
binding result [8]: binds

B10: TMES1001 (antibody, V domains shown)
VH: QVQLVQSGAEVKKPGASVKVSCKASGYTFTSYYMYWVRQAPGQGLEWMGIINPGGGSTSYAQKFQGRVTMTRDTSTSTVYMELSSLRSEDTAVYYCARVFRYGMDVWGQGTTVTVSS
VL: EIVMTQSPATLSVSPGERATLSCRASQSVSSNLAWYQQKPGQAPRLLIYGASTRATGLPARFSGSGSGTEFTLTISSLQSEDFAVYYCQSRGTFGGGTKVEIK
notes: as for B1
binding result [7]: binds

B11: TMES1001 (antibody, V domains shown)
VH: QVQLVQSGAEVKKPGASVKVSCKASGYTFTSYYMYWVRQAPGQGLEWMGIINPGGGSTSYAQKFQGRVTMTRDTSTSTVYMELSSLRSEDTAVYYCARVFRYGMDVWGQGTTVTVSS
VL: EIVMTQSPATLSVSPGERATLSCRASQSVSSNLAWYQQKPGQAPRLLIYGASTRATGLPARFSGSGSGTEFTLTISSLQSEDFAVYYCQSRGTFGGGTKVEIK
notes: as for B5
binding result [8]: binds

B14: TTES1011 (antibody, V domains shown)
VH: PVTLRESGPALVKPTQTLTLTCTFSGFSLSTSGMCVSWIRQPPGKALEWLARIDWDDDKYYSTSLKTRLTISKDTSKNQVVLTMTNMDPVDTATYYCARMQIVATTQTYYYYYGMDVWGQGTTVTVSS
VL: PAVLTQPPSVSGAPGQRVTISCTGSSSNIGAGYDVHWYQQLPGTAPKLLIYGNSNRPSGVPDRFSGSKSGTSASLAITGLQAEDEADYYCQSYDSSLSGSGVFGGGTKLTVLG
notes: as for B1
binding result [9]: binds

B16: THNS1009 (antibody, V domains shown)
VH: QVQLQESGPGLVKPSETLSLTCTVSGGSISIYYWSWIRQPPGKGLEWIGYIYYSGSTNYNPSLKSRVTISVDTSKNQFSLKLRSVTAADTAVYYCARDTYGDPRGDYFDYWGQGTLVTVSS
VL: DIQMTQSPSTLSASVGDRVTITCRASQRISNWLAWYQQTPGKAPKLLIYKASSLESGVPSRFSGSGSGTEFTLTISSLQPDDFATYYCQQYSSSSPRTFGQGTKVEIKR
notes: as for B5
binding result [6]: binds

B17: THNS1009 (antibody, V domains shown)
VH: QVQLQESGPGLVKPSETLSLTCTVSGGSISIYYWSWIRQPPGKGLEWIGYIYYSGSTNYNPSLKSRVTISVDTSKNQFSLKLRSVTAADTAVYYCARDTYGDPRGDYFDYWGQGTLVTVSS
VL: DIQMTQSPSTLSASVGDRVTITCRASQRISNWLAWYQQTPGKAPKLLIYKASSLESGVPSRFSGSGSGTEFTLTISSLQPDDFATYYCQQYSSSSPRTFGQGTKVEIKR
notes: VH/VL only
binding result [5]: binds

B18: THNS1008 (antibody, V domains shown)
VH: QVQLQESGPGLVKPSQTLSLTCAVSGGSISSGGYPWSWIRQPPGKGLEWIGYISYSGSTDYNPSLKSRVTISLDTSSNQFSLNLSSLTAADTAVYYCARGAAFYYGMDVWGQGTTVTVSS
VL: DIQMTQSPSSLSASVGDRVTITCRASQSISTYLNWYQQKPGKAPKLLIYVASSLQSGVPSRFSGSGSGTDFTLTISGLQPEDFATYYCQQSYSTPYTFGQGTKLEIKR
notes: detected with anti-human IgG Fc; also called THINS1008
binding result [3]: binds

More lines, now with the values ahead:

binding result (DEAD-box helicase 53 [2]): binds
B2: TOVA1001 (antibody, V domains shown)
VH: HVQLVQSGSELKKPGASVKLSCKASGYTFTNYAMNWVRQAPGQGLEWMGWINTNTGNPTYAQGFTGRFVFSLDTSVSTAYLQISSLKAEDTALYYCARDRPGDYWGQGTLVTVSS
VL: not shown

binding result [3]: binds
B3: TBRE1052 (antibody, V domains shown)
VH: PVQLIQSGAEVRKPGASVKVSCKVSGYTLSELSLHWVRQAPGKGLEWMGTFDPEDGETVYAQKFQGRVTVTEDTSTDTAYIDLSSLKSEDTAVYYCATDGPLHTSGLDYWGQGTLVTVSS
VL: EIVLTQSPATLSLSPGERATLSCRASQSISSNLAWYQQKPGQAPRLLIYDASNRATGIPARFSGSGSGTDFTLTISSLEPEDFAVYYCQQHSNWPELTFGGGTKVEIKR
notes: as for B5

binding result [4]: binds
B4: TBRE1052 (antibody, V domains shown)
VH: PVQLIQSGAEVRKPGASVKVSCKVSGYTLSELSLHWVRQAPGKGLEWMGTFDPEDGETVYAQKFQGRVTVTEDTSTDTAYIDLSSLKSEDTAVYYCATDGPLHTSGLDYWGQGTLVTVSS
VL: EIVLTQSPATLSLSPGERATLSCRASQSISSNLAWYQQKPGQAPRLLIYDASNRATGIPARFSGSGSGTDFTLTISSLEPEDFAVYYCQQHSNWPELTFGGGTKVEIKR
notes: VH/VL only

binding result [7]: binds
B8: TMEL1025 (antibody, V domains shown)
VH: EVQLMESGGGLVQPGGSLRLSCAASGLTFSIYSMNWVRQAPGKGLEWVSYISRGSSVIYHADSVKGRFTISRDDGKNLLYLQMNSLRDDDTAMYYCSSGGSTSMVGRYWGQGSLVTVSS
VL: DVVMTQSPLYLPVTLGQPASISCRASQSLVYSDGNTYLNWVHQRPGQSPRRLIYMVSQRGSGVPDRFSGSGSDTDFTLKISRVEAEDVGVYYCMQGTHWSAFGQGTKLEIKR
notes: as for B1

binding result (DEAD-box helicase 53 [1]): binds
B12: TSAR1004 (antibody, V domains shown)
VH: QVQLQESGPGLVKPSETLSLTCSVSGDSFSDYYWSWTRQSPGKGLEWLGYMFYGGSTNYNPSLKSRLTMSVDTSKKHVYLKLSSVTAADTAVYYCAASGYGDHVAYWGQGTLVTVSS
VL: DIVMTQSPDSLAVSLGERATLNCKSSQSVLSSYNNKDYLAWFQQKPGQPPQLLFYWASTRKTGVPDRFSGSGSGTDFTLTISSLQTEDVAVYYCQQYYSTPYTFGQGTKLEIK
notes: as for B1

binding result (DEAD-box helicase 53 [2]): binds
B13: TSAR1004 (antibody, V domains shown)
VH: QVQLQESGPGLVKPSETLSLTCSVSGDSFSDYYWSWTRQSPGKGLEWLGYMFYGGSTNYNPSLKSRLTMSVDTSKKHVYLKLSSVTAADTAVYYCAASGYGDHVAYWGQGTLVTVSS
VL: DIVMTQSPDSLAVSLGERATLNCKSSQSVLSSYNNKDYLAWFQQKPGQPPQLLFYWASTRKTGVPDRFSGSGSGTDFTLTISSLQTEDVAVYYCQQYYSTPYTFGQGTKLEIK

binding result [9]: binds
B15: TOVA1008 (antibody, V domains shown)
VH: ELQLVESGGGLVQPGGSLRLSCAASGFTFSSYWMSWVRQAPGKGLEWVANINQDGGEKYYVDSVKGRFTISRDNAKNSLYLQMNSLRAEDTAVYYCAHYYYDSSGYYQNAEYFQYWGQGTLVTVSS
VL: DIQMTQSPPSLSASVGDRVTITCQASQDISNYLNWYQQKPGKTPKLLIYAASTLETGVPSRFSGSGSGTDFTFTINSLQPEDIATYYCQQYDSLPLTFGGGTKVEIKR
notes: as for B1
